This is an account of results in patent US20180142032A1 (Sanofi, published 2018).

Residue numbers refer to the chain shown, from its start. Numbers in names are those of the source. Like-named read-outs stand apart in the source and are kept apart here.

Assay [1] has as its target T1, LAMP1::histag (human, UniProt P11279 29-382).
T1 construct: extracellular domain without signal peptide, C-terminal 6 His tag, made in HEK293 cells; also called recombinant human LAMP1; human LAMP1 (29-382)
T1 sequence: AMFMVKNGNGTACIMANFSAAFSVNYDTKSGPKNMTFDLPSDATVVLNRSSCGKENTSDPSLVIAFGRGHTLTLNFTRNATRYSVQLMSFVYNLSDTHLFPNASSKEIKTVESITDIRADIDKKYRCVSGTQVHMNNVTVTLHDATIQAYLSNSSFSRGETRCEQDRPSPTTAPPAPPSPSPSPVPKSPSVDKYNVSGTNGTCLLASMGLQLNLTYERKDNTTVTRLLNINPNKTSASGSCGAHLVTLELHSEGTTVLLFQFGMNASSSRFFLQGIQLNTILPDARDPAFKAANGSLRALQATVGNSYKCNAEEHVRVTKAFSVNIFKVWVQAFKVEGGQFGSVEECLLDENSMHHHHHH
Kind of assay: SPR (BIAcore 2000), mAb captured by anti-Fc, LAMP1 injected 1 to 256 nM. The procedure: The binding kinetics of the murine, chimer or humanized anti-LAMP1 mAbs were determined by surface plasmon resonance assay using a BIAcore 2000 (BIAcore Inc., Uppsala, N.J.). […] A mouse anti-αhuman Fc IgG1 (BIAcore #BR-1008-39) and rabbit anti-αmurine Fc IgG1 (BIAcore #BR-1008-38) (50 μg/mL in […], pH5) were immobilized on the activated chips in all flow cells. The immobilization was carried out at a flow rate of 10 μL/min up to saturation. The chip was then blocked by injection of 70 μL of ethanolamine-HCl, pH 8.5, followed by one wash with 3 M MgCl₂ for anti-αhuman Fc IgG1 and one wash with 10 mM Glycine-HCl pH 1.7 for anti-αmurine Fc IgG1. To measure the binding of anti-LAMP1 mAbs to LAMP1, antibodies were used at 1-5 μg/mL in BIAcore running buffer (HBS-EP). […] Following completion of the injection phase, dissociation was monitored in a BIAcore running buffer at the same flow rate for 600 sec. […] Individual sensorgrams were analyzed using BIAevaluation software.
(In general: Surface plasmon resonance follows binding to a sensor surface in real time, without labels.)

Assay [2] deals with T2, human LAMP1 at the cell surface (human, UniProt P11279 29-417).
T2 construct: native on tumour cells (PDX, Colo205, SW480, LS174T) or from the cloned CDS NM_005561.3 in HEK293 and HCT116; signal peptide 1-28 left out; also called huLAMP1; full length human LAMP1
T2 sequence: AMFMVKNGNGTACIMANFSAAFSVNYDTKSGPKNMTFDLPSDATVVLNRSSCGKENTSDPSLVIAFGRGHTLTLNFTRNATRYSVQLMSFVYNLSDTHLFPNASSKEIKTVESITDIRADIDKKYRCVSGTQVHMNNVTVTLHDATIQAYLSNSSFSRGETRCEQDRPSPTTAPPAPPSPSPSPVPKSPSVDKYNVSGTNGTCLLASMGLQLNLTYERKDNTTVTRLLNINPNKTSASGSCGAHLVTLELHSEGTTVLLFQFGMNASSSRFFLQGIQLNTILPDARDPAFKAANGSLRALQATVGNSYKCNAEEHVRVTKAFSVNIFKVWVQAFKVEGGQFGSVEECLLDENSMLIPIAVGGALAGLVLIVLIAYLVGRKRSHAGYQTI
Kind of assay: flow cytometry, HCT116 huLAMP1 clone 8. On the procedure: HCT116 cells were infected by a lentiviral vector allowing stable integration of the human or the cynomolgus LAMP1 CDS in genomic DNA of cells. Individual clones with different densities of human or cynomolgus LAMP1 cell surface localization were derived from a pool of HCT116 infected cells. […] 100 μL/well of goat anti-human IgG conjugated with Alexa488 (Invitrogen; # A11013) was added for 1 h at 4° C. and washed two times with PBS 1% BSA. The antibody binding was evaluated after centrifugation and resuspension of cells in 100 μl fixing solution (paraformaldehyde at 4% in PBS). Samples were read using Galaxy® Flow Cytometry System (Partec). EC50 values were estimated using BIOST@T-SPEED software.
For orientation: In flow cytometry, cells or beads pass a laser one at a time.

Assay [3] has as its target T2, human LAMP1 at the cell surface. The assay can be described thus: cell-based or functional assay.
Assay [4] addresses T3, cynomolgus monkey LAMP1 at the cell surface (cynomolgus monkey, UniProt P11279 29-417 (human entry)).
T3 construct: also called cynoLAMP1; cynomolgus LAMP1
T3 chain: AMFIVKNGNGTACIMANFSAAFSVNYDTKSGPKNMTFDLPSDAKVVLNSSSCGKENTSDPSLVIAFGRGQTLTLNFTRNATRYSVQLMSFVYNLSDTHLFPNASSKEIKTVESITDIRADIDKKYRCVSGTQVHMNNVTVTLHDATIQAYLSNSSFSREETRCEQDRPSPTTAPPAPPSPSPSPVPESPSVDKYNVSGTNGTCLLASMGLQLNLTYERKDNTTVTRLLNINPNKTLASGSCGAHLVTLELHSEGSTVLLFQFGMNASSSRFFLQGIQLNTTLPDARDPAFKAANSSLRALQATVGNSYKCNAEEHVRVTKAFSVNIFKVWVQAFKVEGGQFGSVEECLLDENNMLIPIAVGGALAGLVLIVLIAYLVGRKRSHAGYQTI
The assay can be described thus: flow cytometry.

For assay [5], the target named is T3, cynomolgus monkey LAMP1 at the cell …. Kind of assay: flow cytometry, HEK293 cynoLAMP1 clone 44.
Assay [6] shares this target. The assay can be described thus: flow cytometry, HEK293 cynoLAMP1 clone 44.
The target in assay [7] is T1, LAMP1::histag. The assay can be described thus: ELISA on secreted human LAMP1. On the technique in general: In an ELISA, binding on a coated surface is turned into a signal by an enzyme label.
Assay [8] addresses T2, human LAMP1 at the cell surface. Kind of assay: cell-based or functional assay. This is another data set of the same source.

B1: chMAb2can (antibody, human IgG1, kappa, V domains shown)
VH: QVQLQQSAAELARPGASVKMSCKASGYTFTSYTMHWVKQRPGQGLEWIGYFNPSSGYPEYNQKFKDKTTLTADKSSNTAFIQLNSLTSEDSAVYYCSRGYYYGSRGYALDFWGQGTSVTVSS
VL: NIVLTQSPASLAVSLGQRATISCRASESVDINGNTFMHWYQQKPGQSPKLLIYAASNLESGVPARFSGSGSGTDFTFTIDPVEADDVATYYCQQNIEDPWTFGGGTKLEIKR
Consider B1, for which the dissociation constant Kd (usually the equilibrium constant for the complex coming apart) with LAMP1::histag [1] is 68.8 nM.

B2: DM4-SPDB-chMAb2 (antibody, human IgG1, kappa, V domains shown)
VH: B1 VH
VL: B1 VL
modifications: DM4 linked through SPDB, average DAR 3.7 per antibody; sites not stated
notes: also called DM4-SPDB-chMAb2can
For the molecule B2, the figures for the EC50 in assay [2] and in assay [5] were 5.5 nM and 12.8 nM, respectively. Besides, the “cytotoxicity IC50, HCT116 huLAMP1 clone 8” value (shortened to “cytotoxicity IC50”) in assay [3] was 0.07 nM. Also, in assay [4], the “Ratio of EC50s (cynoLAMP1 against huLAMP1)” value (from here on “Ratio of EC50s”) was determined as 2.3.

B3: DM4-SPDB-chMAb3 (antibody, human IgG1, kappa, V domains shown)
VH: QIQLVQSGPELKKPGETVKISCKASGYIFTNYGMNWVKQAPGKGLKWMGWINTYTGESRYADDFKGRFALSLETSASTAYLQINNLENEDMATYFCAREDYYGNSPWFFDVWGAGTTVTVSS
VL: DIQMTQTTSSLSASLGDRVTISCRASQGINKYLNWYQQKPDGTVKLLIYYTSTLHSGVPSRFSGSGSGTDYSLTINNLEPEDIATYYCQQYTRLPFTFGSGTKLEIKR
modifications: DM4 linked through SPDB, average DAR 3.7 per antibody; sites not stated
Consider B3, for which the EC50 (usually the concentration at which the effect is half-maximal) in assay [2] is 9.1 nM; in assay [5], 6.1 nM. In addition, the “cytotoxicity IC50” value in assay [3] amounted to 0.06 nM. Further, in assay [4], the “Ratio of EC50s” value was determined as 0.7.

B4: chMAb3_VLR24-R93 (antibody, human IgG1, kappa, V domains shown)
VH: B3 VH
VL: B3 VL
notes: chimeric, human IgG1, Ckappa; VL with N24R and K93R
B4 came in with a Kd in the assay with LAMP1::histag [1] of 7.2 nM.

B5: DM4-SPDB-huMAb1_2 (antibody, human IgG1, kappa, V domains shown)
VH: QVQLVQSGAELVKPGASVKMSCKASGYIFTNYNIHWVKKSPGQGLEWIGAIYPGNGDAPYSQKFQDRATLTADTSSSTTYMELSSLTSEDSAVYYCVRANWDVAFAYWGQGTLVSVSS
VL: DIQMTQSPPSLSASVGGKVTITCKASQDIDRYMAWYQDKPGKGPKLLIHDTSTLQPGIPSRFSGSGSGRDYSFSISNLEPEDIATYYCLQYDNLWTFGGGTKLEIKR
modifications: DM4 linked through SPDB, average DAR 4.05 per antibody; sites not stated
B5: the “cytotoxicity IC50” value in assay [3] is 0.07 nM.

B6: huMAb1_3 (antibody, human IgG1, kappa, V domains shown)
VH: B5 VH with K38R, K39Q, S40A, S61A, D66G, S91T, S115T
VL: B5 VL with P9S, D38Q, I58V, F73L, S74T, N77S
notes: humanized, VH3-huIgG1 and VL3-huCk
Regarding B6, the EC50 is 10.3 nM in assay [2] and 17.7 nM in assay [6].

B7: DM4-SPDB-huMAb1_3 (antibody, human IgG1, kappa, V domains shown)
VH: B5 VH with K38R, K39Q, S40A, S61A, D66G, S91T, S115T
VL: B5 VL with P9S, D38Q, I58V, F73L, S74T, N77S
modifications: DM4 linked through SPDB, average DAR 3.5 per antibody; sites not stated
On to B7, for which the “cytotoxicity IC50” value in assay [3] was determined as 0.12 nM.

B8: huMAb1_negB (antibody, human IgG1, kappa)
heavy: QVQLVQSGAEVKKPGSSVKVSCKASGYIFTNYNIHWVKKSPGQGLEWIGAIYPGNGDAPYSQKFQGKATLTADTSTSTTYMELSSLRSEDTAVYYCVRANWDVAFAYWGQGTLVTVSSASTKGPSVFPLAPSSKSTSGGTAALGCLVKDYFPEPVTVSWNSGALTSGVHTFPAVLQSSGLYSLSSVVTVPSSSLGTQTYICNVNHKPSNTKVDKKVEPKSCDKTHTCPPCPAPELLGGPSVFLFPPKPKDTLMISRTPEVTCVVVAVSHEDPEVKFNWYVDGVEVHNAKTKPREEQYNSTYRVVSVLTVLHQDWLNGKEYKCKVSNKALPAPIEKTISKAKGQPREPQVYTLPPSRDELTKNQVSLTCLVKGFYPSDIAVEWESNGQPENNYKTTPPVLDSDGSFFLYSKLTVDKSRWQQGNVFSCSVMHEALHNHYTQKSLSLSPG
light: DIQMTQSPSSLSASVGDRVTITCKASQDIDRYMAWYQDKPGKAPRLLIHDTSTLQSGVPSRFSGSGSGRDYTLTISNLEPEDFATYYCLQYDNLWTFGGGTKVEIKRTVAAPSVFIFPPSDEQLKSGTASVVCLLNNFYPREAKVQWKVDNALQSGNSQESVTEQDSKDSTYSLSSTLTLSKADYEKHKVYACEVTHQGLSSPVTKSFNRGEC
notes: LC1 and HCnegB (VH1-huIgG1_266A, D265A by Kabat)
The molecule B8 gave a half-maximal effective concentration (EC50) with LAMP1::histag [7] of 0.07 nM.

B9: DM4-SPDB-chMAb1 (antibody, human IgG1, kappa)
heavy: not shown
light: DIQMTQSPPSLSASLGGKVTITCKASQDIDRYMAWYQDKPGKGPRLLIHDTSTLQPGIPSRFSGSGSGRDYSFSISNLEPEDIATYYCLQYDNLWTFGGGTKLEIKRTVAAPSVFIFPPSDEQLKSGTASVVCLLNNFYPREAKVQWKVDNALQSGNSQESVTEQDSKDSTYSLSSTLTLSKADYEKHKVYACEVTHQGLSSPVTKSFNRGEC
modifications: DM4 linked through SPDB, average DAR 4.5 per antibody; sites not stated
notes: antibody drug conjugate of chMAb1; also called chMAb1-SPDB-DM4
As to B9, the 50% effective concentration (EC50) in assay [2] and in assay [5] was 6.6 nM in each case. The “Cytotoxic activity IC50 (Cell Titer-Glo), HCT116-LAMP1 clone 5, antigen density 451 000” value in assay [8] was found to be 0.2 nM. In assay [8], the “Cytotoxic activity IC50 (Cell Titer-Glo), HCT116-LAMP1 clone 8, antigen density 160 000” value came out at 0.1 nM. The “Ratio of EC50s” value in assay [4] is 1.

B10: huMAb1_2 (antibody, human IgG1, kappa, V domains shown)
VH: B5 VH
VL: B5 VL
notes: humanized, VH2-huIgG1 and VL2-huCk
Take B10: the results for the 50% effective concentration (EC50) in assay [2] and in assay [6] were 6.6 nM and 13.3 nM, respectively.
